Measured values reported in the supplement of paper PMC12042874.
± gives the uncertainty stated by the source.

Experiment: amyloid nucleation score (Sup35N fusion, yeast selection) (log enrichment); library NNK2; higher = more nucleation; inactive = no reads after selection
Method in brief: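 DiMSum was used to calculate nucleation scores as log enrichment of output over input reads, centred on the mode score of non-aggregating sequences. Sequences with fewer than 100 input reads were not scored. Input and output came from Illumina sequencing of plasmid inserts in psi-negative yeast expressing peptides of 20 random codons fused to Sup35N, induced 24 hours with 100 μM copper sulfate and then grown 7 days at 30°C on medium lacking adenine and uracil.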

| Substance | amyloid nucleation score |
| --- | --- |
| FVLNHLAV | -0.548 ± 0.54 |
| FVLRIDNC | 0.735 ± 0.39 |
| FVLSDQK | 0.347 ± 0.21 |
| FVQSVGNMVSNSGRAGGMPG | 0.444 ± 0.31 |
| FVSFSSLTKTLWYRRRRMVR | -1.06 ± 1.1 |
| FVVGAES | -0.821 ± 0.48 |
| FVVIWAMDIDVLWSMGGKID | 5.46 ± 0.061 |
| FVYNQWSYRLRYLTVAIRD | -0.111 ± 0.56 |
| FWGGDLRACSCGQGIEFAGR | 3.7 ± 0.14 |
| FWGIVKYMWIFSTTYLNVFL | 3.22 ± 0.11 |
| FWHIEMCENSTYHVSLSTGC | 4.394 ± 0.04 |
| FWLLSTCGV | -0.408 ± 0.29 |
| FWLVL | -1.47 ± 0.73 |
| FWRDLPAQWTRPKAENLVLK | 1.23 ± 0.32 |
| FWRTP | -0.539 ± 0.5 |
| FWYENP | 2.14 ± 0.16 |
| FWYFPDIIWG | inactive |
| FYASLHNSFFSVLWTDMTFS | -0.487 ± 1.1 |
| FYCVNV | -0.383 ± 0.64 |
| FYFCF | 7.59 ± 0.03 |
| FYFEMVTSD | inactive |
| FYFHEACPSRLHHTKSAIGK | -0.839 ± 0.78 |
| FYGGDA | 0.005 ± 0.39 |
| FYHISEVLVVPLRLELSVQL | 5.68 ± 0.07 |
| FYIYGNSCSPYIML | -0.681 ± 1 |

| Substance | amyloid nucleation score |
| --- | --- |
| FYLNKDNLWNSNLGGSAHKC | -2.38 ± 1.1 |
| FYLRNSVMCTGPDLGNSTYM | -1.15 ± 1.1 |
| FYLSLLYGRSRQIGLLIYFQ | 0.974 ± 0.15 |
| FYLYFIYGSVCSLSRFNPIR | 1.53 ± 0.1 |
| FYLYNFMCEVLYMESRRVMS | inactive |
| FYMTYWISPMVIQWVFTDYA | 5.571 ± 0.034 |
| FYMYAFNYYSFY | 2.91 ± 0.086 |
| FYSAVYMLFIVMWFGYSLIN | inactive |
| FYSELKLNGMH | -2.04 ± 0.62 |
| FYWVLMNYGQLCCWFW | 1.79 ± 0.2 |
| GAFSYEMTRLKALGFWPL | 5.87 ± 0.045 |
| GAIIGIAGVPKGLSNSHSDG | -0.606 ± 1.1 |
| GAPSHFCEFCSYSAAKEEYE | inactive |
| GARYTIWECF | inactive |
| GCCWEKSASRSAETYWSGRA | 3.06 ± 0.14 |
| GCGGAHY | -0.633 ± 0.29 |
| GCHICHRWIKSVYRSNHALM | 0.291 ± 0.33 |
| GCKNR | 0.226 ± 0.51 |
| GCLLLPKGASHKIDYCGSDV | 0.396 ± 0.35 |
| GCLTNTSSGMHWS | -0.208 ± 0.24 |
| GCRAVRTWEPIGVAGEYFGS | 6.232 ± 0.037 |
| GCRDMIWVGL | inactive |
| GCRRISFKSHISGVEGTNGG | 1.2 ± 0.43 |
| GCTSTRRLVYC | -0.622 ± 0.29 |
| GCVLAQLSSVGSGVLML | 3.14 ± 0.16 |

| Substance | amyloid nucleation score |
| --- | --- |
| GCWKD | 1.22 ± 0.36 |
| GDGHLVILLSHFTPWSLNTG | -0.209 ± 0.48 |
| GDKCGFCKNAGPGVKVS | -0.807 ± 0.79 |
| GDKYCGLEPYGMGHNHMYAL | 0.546 ± 0.56 |
| GDMLILSENDQRYCGPVDL | 0.107 ± 0.45 |
| GDNYIS | 0.782 ± 0.41 |
| GDPLS | 0.162 ± 0.28 |
| GDTPGSLYCNLISEGAI | 0.119 ± 0.76 |
| GDVQLRGMHESPYSPPSQGR | -0.127 ± 0.49 |
| GEAFRKDPLRCYMFQGIIEQ | 2.1 ± 0.14 |
| GEDCWRPPVR | 0.559 ± 0.5 |
| GEHSGTHNFKCFVSIIRLSR | 0.305 ± 1 |
| GEISIGMNLTGEKTSSSGFK | -0.679 ± 1.1 |
| GENKDYWGHGYVSLACNRQG | 0.492 ± 0.38 |
| GETVHREYLAGWMALSSRRR | 2.47 ± 0.094 |
| GEYGCHHVCLVQGLFGI | -0.164 ± 0.42 |
| GFALYFCSEFMVSVCRCKHT | 9.613 ± 0.065 |
| GFCQASSWM | -0.109 ± 0.76 |
| GFDGLRVLLNEHNVIAK | 0.771 ± 0.47 |
| GFLELCMFKVFFQRCARTIS | -1.04 ± 1.1 |
| GFPVWNVYLKSNGHVCDGLG | 1.31 ± 0.15 |
| GFRNCWKWPHWVLAPMLYNS | 0.007 ± 1.1 |
| GFRVVCHILALCRYGTCLEI | -0.608 ± 0.35 |
| GFSTRYVFTSLYLKYFNRVY | -0.476 ± 0.64 |
| GFSWDNESFLCELKMGCLTG | -0.646 ± 0.31 |

| Substance | amyloid nucleation score |
| --- | --- |
| GFVLILTAIYVVGCINICAM | 5.66 ± 0.064 |
| GFVMSYGRGLLS | 0.29 ± 0.42 |
| GFVPGIMEF | 0.808 ± 0.52 |
| GFYGLTVSSTEYKWSMIQIR | 1.88 ± 0.077 |
| GFYIPRRAFS | -1.13 ± 0.25 |
| GGISKIFVWEVSIVHYSNIS | inactive |
| GGLCYEQNFYRYKKRRVLEL | 3.47 ± 0.12 |
| GGNLGRPEKALSRRCCVDYL | inactive |
| GGSKTRLFL | -0.263 ± 1.1 |
| GGTLHWLAMDTNMVNMACIG | inactive |
| GGTVEARSKGILSLSGW | inactive |
| GHAHLCSMYVVSIRLHLSMV | 5.59 ± 0.081 |
| GHCFISEFLGRRVA | 2.36 ± 0.08 |
| GHGFFLTTMSSGNNTDRNSG | -1.22 ± 1.1 |
| GHNTYGYQRMRGCDV | 1.3 ± 0.38 |
| GHTPCPHNVVRTHVLSWHGL | 7.021 ± 0.042 |
| GHVDCWYGRVTALGQAKYE | 0.344 ± 0.26 |
| GHVQSWGCVVLHEFSSISPE | 5.488 ± 0.05 |
| GICKALARYYFSIYDWQVTE | 0.049 ± 1.1 |
| GICTWNFV | inactive |
| GIGSQMWFT | 3.41 ± 0.053 |
| GIMGDGGGHALWTEEELKVR | 1.01 ± 0.23 |
| GINVCFKHTMV | 3.28 ± 0.062 |
| GIPCGGMFCRIGS | 0.524 ± 0.81 |
| GIRAVVL | 0.374 ± 0.18 |

| Substance | amyloid nucleation score |
| --- | --- |
| GIRLGSNDQSVYSRPNV | 1.46 ± 0.35 |
| GKCMV | 4.02 ± 0.095 |
| GKDGKLTSMAHSYHDYVMRR | 0.129 ± 0.26 |
| GKEIRNNITMCGYLMQNICD | 2.85 ± 0.17 |
| GKPTFFMG | 0.6 ± 0.74 |
| GKVRRIIWLSCKNG | 1.05 ± 0.54 |
| GLESFGDYSVKIPLGDLFGP | -0.025 ± 0.3 |
| GLGYLMINYMRISWWAMYCA | 0.235 ± 0.61 |
| GLISIAVSRRVYLFCLVAPV | -0.541 ± 0.79 |
| GLKNRVWL | 1.05 ± 0.26 |
| GLLGKTASTYAVRVWGIGVG | 1.03 ± 0.2 |
| GLLGWMGAYGANPCYPTTLF | 0.515 ± 0.8 |
| GLMTYFSSVESGEHTDRNLS | -0.732 ± 0.33 |
| GLNISPRMYCF | 0.002 ± 0.28 |
| GLPYVSMINLHASYTERMVW | -0.687 ± 0.64 |
| GLRLFKMKDFC | 2.14 ± 0.21 |
| GLRWNKFYKCTEVCMCRGSS | 2.58 ± 0.15 |
| GLSAKNH | 0.279 ± 0.39 |
| GLSAMDDRMVPRIIYWIRLW | -0.217 ± 0.36 |
| GLWLGWNLYVNKFV | 0.385 ± 0.33 |
| GLWVV | -1.02 ± 1.1 |
| GLYRGTLVYKTYVLGNNKPL | -1.33 ± 1.1 |
| GMCLTGSTSVRTNNSPHVSR | 0.803 ± 0.32 |
| GMGIHFKASGRGPLIVGERD | 0.75 ± 0.44 |
| GMIRLLGLFIKKRWRSNTCL | -0.238 ± 0.5 |

| Substance | amyloid nucleation score |
| --- | --- |
| GMIVLRCSRSCWFVQTKADG | 1.27 ± 0.48 |
| GMLMIVGARSRDVPYYGRCD | 0.004 ± 1.1 |
| GMNFHRGLMLNGVCIFSLLW | 0.491 ± 0.38 |
| GMNRL | -0.869 ± 0.55 |
| GMTVNYRRMVQNQRMFGPGI | -0.42 ± 0.37 |
| GMVNIYDLCYMLLY | -1.21 ± 0.31 |
| GNHSAVAPS | -0.677 ± 0.38 |
| GNKCLSWVES | -0.12 ± 0.23 |
| GNLSNSQTIWFRSNTAISLN | 1.98 ± 0.14 |
| GNNFIF | inactive |
| GNNRAY | -0.117 ± 0.74 |
| GNPTESG | 0.148 ± 0.29 |
| GNRLWFGTIVRHLIYEVYVR | 0.665 ± 0.36 |
| GNRVYGDYCFYTTMGWASW | -0.379 ± 0.55 |
| GNYFPYFQVWSISRFLMSIS | inactive |
| GNYVSTFFKCRILYRMNLMF | -0.121 ± 1.1 |
| GPCGVVVNFHRSCFCRFEFL | 7.61 ± 0.082 |
| GPCMMEGLIYREMSAGYTTV | 0.416 ± 0.49 |
| GPLFHTTRLRDNHM | 3.11 ± 0.11 |
| GPTNVIRTISRDTTIV | -0.646 ± 0.39 |
| GPTRSYRLAASGAGEGCKTW | 2.09 ± 0.1 |
| GQTIL | inactive |
| GQYLVSKFGIEHTA | 0.307 ± 0.17 |
| GRAYHESLSGDFVLFSSRRC | -0.815 ± 0.63 |
| GRCTRERW | 0.123 ± 0.32 |

| Substance | amyloid nucleation score |
| --- | --- |
| GRESKVWIPFTGALF | -1.04 ± 1.1 |
| GRFDSRAFTDDMTKIPMYYL | 0.045 ± 0.36 |
| GRLYHGVVTCSGRNGINRGS | 2.92 ± 0.19 |
| GRNVMTKAPYCTCWANVLHS | 6.67 ± 0.075 |
| GRSEVRFMTMLMLCKKCACL | 5.547 ± 0.034 |
| GRSGVLLQRGGFVKNSRCEK | 0.026 ± 1.1 |
| GRYNVDFKSIMRYIECGKTA | -0.27 ± 1.1 |
| GSAGNYRRY | 0.167 ± 0.56 |
| GSARCNTSFCCQQVYFYGCG | 8.486 ± 0.064 |
| GSCVIM | 1.36 ± 0.67 |
| GSFENSTRTYVSIIRR | 4.73 ± 0.045 |
| GSFLFYCILPIYFLGAWMRV | -1.4 ± 0.78 |
| GSLTDLFGWDESCFRCTALC | 3.79 ± 0.092 |
| GSMVLPIICNKIAYRSCSTI | -0.828 ± 0.56 |
| GSPIESGVFNANLWPYDAYG | -0.216 ± 0.41 |
| GSQGFPRRFSPSMPM | 0.886 ± 0.8 |
| GSQVLCGLRLPARGFWSYIM | 0.254 ± 0.3 |
| GSRDDSTVLVRKSSCRVEGS | 0.665 ± 0.37 |
| GSRGMVFQMFT | 0.94 ± 0.48 |
| GSRVALLNMGGK | -0.512 ± 0.79 |
| GSRYLIGVEYE | 0.319 ± 0.56 |
| GSSAYITLLHYEILNLRLLC | 4.12 ± 0.079 |
| GSSVEMQLCELTSGGFDLSL | 0.228 ± 0.32 |
| GSWLIEMCEVVSNSMTSMGP | 1.29 ± 0.3 |
| GSYCQWIYF | 1.99 ± 0.22 |
